Biological target: T1, soluble human CD3ε chain (human, UniProt P07766 23-126, limits assumed)
T1 construct: the text says soluble human CD3ε chain; also called human CD3 epsilon chain
Test: SPR (Biacore)

T1 sequence (P07766 23-126 limits assumed): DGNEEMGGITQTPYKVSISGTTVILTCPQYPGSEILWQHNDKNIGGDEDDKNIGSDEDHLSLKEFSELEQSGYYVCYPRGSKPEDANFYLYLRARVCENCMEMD

| Binder | Kd |
| --- | --- |
| TR01H027-E22Hh/none-Hi-Kn010G3/L0000-k0 (antibody, human IgG1, kappa, L234A L235A, N297A, single-arm) heavy: QVQLVESGGGLVQPGGSLRLSCAASGFTFSNAWMHWVRQAPGKGLEWVAQIKSKSQNYATYYAESVKGRFTISRADSKNSIYLQMNSLKTEDTAVYYCRYVHYSASYGVDAWGQGTTVTVSSASTKGPSVFPLAPSSKSTSGGTAALGCLVKDYFPEPVTVSWNSGALTSGVHTFPAVLQSSGLYSLSSVVTVPSSSLGTQTYICNVNHKPSNTKVDKKVEPKSCDKTHTCPPCPAPEAAGGPSVFLFPPKPKDTLMISRTPEVTCVVVDVSHEDPEVKFNWYVDGVEVHNAKTKPREEQYASTYRVVSVLTVLHQDWLNGKEYKCKVSNKALPAPIEKTISKAKGQPREPQVYTLPPSRCELTKNQVSLSCAVKGFYPSDIAVEWESNGQPENNYKTTPPVLDSDGSFFLVSKLTVDKSRWQQGNVFSCSVMHEALHNHYTQKSLSLSPDYKDDDDK EPKSSDKTHTCPPCPAPELLGGPSVFLFPPKPKDTLMISRTPEVTCVVVDVSHEDPEVKFNWYVDGVEVHNAKTKPREEQYNSTYRVVSVLTVLHQDWLNGKEYKCKVSNKALPAPIEKTISKAKGQPREPQVCTLPPSRDELTKNQVSLWCLVKGFYPSDIAVEWESNGQPENNYKTTPPVLDSDGSFFLYSKLTVDKSRWQQGNVFSCSVMHEALHNRYTQKSLSLSP light: DIVMTQSPLSLPVTPGEPASISCRSSQSLVHSNRNTYLHWYQQKPGQAPRLLIYKVSNRFSGVPDRFSGSGSGTDFTLKISRVEAEDVGVYYCGQGTQVPYTFGQGTKLEIKRTVAAPSVFIFPPSDEQLKSGTASVVCLLNNFYPREAKVQWKVDNALQSGNSQESVTEQDSKDSTYSLSSTLTLSKADYEKHKVYACEVTHQGLSSPVTKSFNRGEC | 69.5 nM |
| TR01H029-E22Hh/none-Hi-Kn010G3/L0000-k0 (antibody, human IgG1, kappa, L234A L235A, N297A, single-arm) heavy: QVQLVESGGGLVQPGRSLRLSCSASGFTFSNAWMHWVRQAPGKGLEWVAQIKGKSNNYATYYAESVKGRFTISRADSKNSIYLQMNSLKTEDTAVYYCRYVHYSASYGVDIWGQGTTVTVSSASTKGPSVFPLAPSSKSTSGGTAALGCLVKDYFPEPVTVSWNSGALTSGVHTFPAVLQSSGLYSLSSVVTVPSSSLGTQTYICNVNHKPSNTKVDKKVEPKSCDKTHTCPPCPAPEAAGGPSVFLFPPKPKDTLMISRTPEVTCVVVDVSHEDPEVKFNWYVDGVEVHNAKTKPREEQYASTYRVVSVLTVLHQDWLNGKEYKCKVSNKALPAPIEKTISKAKGQPREPQVYTLPPSRCELTKNQVSLSCAVKGFYPSDIAVEWESNGQPENNYKTTPPVLDSDGSFFLVSKLTVDKSRWQQGNVFSCSVMHEALHNHYTQKSLSLSPDYKDDDDK EPKSSDKTHTCPPCPAPELLGGPSVFLFPPKPKDTLMISRTPEVTCVVVDVSHEDPEVKFNWYVDGVEVHNAKTKPREEQYNSTYRVVSVLTVLHQDWLNGKEYKCKVSNKALPAPIEKTISKAKGQPREPQVCTLPPSRDELTKNQVSLWCLVKGFYPSDIAVEWESNGQPENNYKTTPPVLDSDGSFFLYSKLTVDKSRWQQGNVFSCSVMHEALHNRYTQKSLSLSP light: DIVMTQSPLSLPVTPGEPASISCRSSQSLVHSNRNTYLHWYQQKPGQAPRLLIYKVSNRFSGVPDRFSGSGSGTDFTLKISRVEAEDVGVYYCGQGTQVPYTFGQGTKLEIKRTVAAPSVFIFPPSDEQLKSGTASVVCLLNNFYPREAKVQWKVDNALQSGNSQESVTEQDSKDSTYSLSSTLTLSKADYEKHKVYACEVTHQGLSSPVTKSFNRGEC | 67 nM |

Binders with a lower Kd, results first:

| Kd | Binder |
| --- | --- |
| 51.2 nM | TR01H026-E22Hh/none-Hi-Kn010G3/L0000-k0 (antibody, human IgG1, kappa, L234A L235A, N297A, single-arm) heavy: QVQLVESGGGLVQPGGSLRLSCAASGFTFSNAWMHWVRQAPGKGLEWVAQIKSKSQNYATYYAESVKGRFTISRADSKNSIYLQMNSLKTEDTAVYYCRYVHYSASYGVDIWGQGTTVTVSSASTKGPSVFPLAPSSKSTSGGTAALGCLVKDYFPEPVTVSWNSGALTSGVHTFPAVLQSSGLYSLSSVVTVPSSSLGTQTYICNVNHKPSNTKVDKKVEPKSCDKTHTCPPCPAPEAAGGPSVFLFPPKPKDTLMISRTPEVTCVVVDVSHEDPEVKFNWYVDGVEVHNAKTKPREEQYASTYRVVSVLTVLHQDWLNGKEYKCKVSNKALPAPIEKTISKAKGQPREPQVYTLPPSRCELTKNQVSLSCAVKGFYPSDIAVEWESNGQPENNYKTTPPVLDSDGSFFLVSKLTVDKSRWQQGNVFSCSVMHEALHNHYTQKSLSLSPDYKDDDDK EPKSSDKTHTCPPCPAPELLGGPSVFLFPPKPKDTLMISRTPEVTCVVVDVSHEDPEVKFNWYVDGVEVHNAKTKPREEQYNSTYRVVSVLTVLHQDWLNGKEYKCKVSNKALPAPIEKTISKAKGQPREPQVCTLPPSRDELTKNQVSLWCLVKGFYPSDIAVEWESNGQPENNYKTTPPVLDSDGSFFLYSKLTVDKSRWQQGNVFSCSVMHEALHNRYTQKSLSLSP light: DIVMTQSPLSLPVTPGEPASISCRSSQSLVHSNRNTYLHWYQQKPGQAPRLLIYKVSNRFSGVPDRFSGSGSGTDFTLKISRVEAEDVGVYYCGQGTQVPYTFGQGTKLEIKRTVAAPSVFIFPPSDEQLKSGTASVVCLLNNFYPREAKVQWKVDNALQSGNSQESVTEQDSKDSTYSLSSTLTLSKADYEKHKVYACEVTHQGLSSPVTKSFNRGEC |
| 48 nM | TR01H028-E22Hh/none-Hi-Kn010G3/L0000-k0 (antibody, human IgG1, kappa, L234A L235A, N297A, single-arm) heavy: QVQLVESGGGVVQPGGSLRLSCAASGFTFSNAWMHWVRQAPGKGLEWVAQIKSKSQNYATYYAESVKGRFTISRADSKNSIYLQMNSLKTEDTAVYYCRYVHYSASYGVDIWGQGTTVTVSSASTKGPSVFPLAPSSKSTSGGTAALGCLVKDYFPEPVTVSWNSGALTSGVHTFPAVLQSSGLYSLSSVVTVPSSSLGTQTYICNVNHKPSNTKVDKKVEPKSCDKTHTCPPCPAPEAAGGPSVFLFPPKPKDTLMISRTPEVTCVVVDVSHEDPEVKFNWYVDGVEVHNAKTKPREEQYASTYRVVSVLTVLHQDWLNGKEYKCKVSNKALPAPIEKTISKAKGQPREPQVYTLPPSRCELTKNQVSLSCAVKGFYPSDIAVEWESNGQPENNYKTTPPVLDSDGSFFLVSKLTVDKSRWQQGNVFSCSVMHEALHNHYTQKSLSLSPDYKDDDDK EPKSSDKTHTCPPCPAPELLGGPSVFLFPPKPKDTLMISRTPEVTCVVVDVSHEDPEVKFNWYVDGVEVHNAKTKPREEQYNSTYRVVSVLTVLHQDWLNGKEYKCKVSNKALPAPIEKTISKAKGQPREPQVCTLPPSRDELTKNQVSLWCLVKGFYPSDIAVEWESNGQPENNYKTTPPVLDSDGSFFLYSKLTVDKSRWQQGNVFSCSVMHEALHNRYTQKSLSLSP light: DIVMTQSPLSLPVTPGEPASISCRSSQSLVHSNRNTYLHWYQQKPGQAPRLLIYKVSNRFSGVPDRFSGSGSGTDFTLKISRVEAEDVGVYYCGQGTQVPYTFGQGTKLEIKRTVAAPSVFIFPPSDEQLKSGTASVVCLLNNFYPREAKVQWKVDNALQSGNSQESVTEQDSKDSTYSLSSTLTLSKADYEKHKVYACEVTHQGLSSPVTKSFNRGEC |
| 38.6 nM | TR01H025-E22Hh/none-Hi-Kn010G3/L0000-k0 (antibody, human IgG1, kappa, L234A L235A, N297A, single-arm) heavy: QVQLVESGGGLVQPGRSLRLSCAASGFTFSNAWMHWVRQAPGKGLEWVAQIKSKSQNYATYYAESVKGRFTISRADSKNSIYLQMNSLKTEDTAVYYCRYVHYSASYGVDIWGQGTTVTVSSASTKGPSVFPLAPSSKSTSGGTAALGCLVKDYFPEPVTVSWNSGALTSGVHTFPAVLQSSGLYSLSSVVTVPSSSLGTQTYICNVNHKPSNTKVDKKVEPKSCDKTHTCPPCPAPEAAGGPSVFLFPPKPKDTLMISRTPEVTCVVVDVSHEDPEVKFNWYVDGVEVHNAKTKPREEQYASTYRVVSVLTVLHQDWLNGKEYKCKVSNKALPAPIEKTISKAKGQPREPQVYTLPPSRCELTKNQVSLSCAVKGFYPSDIAVEWESNGQPENNYKTTPPVLDSDGSFFLVSKLTVDKSRWQQGNVFSCSVMHEALHNHYTQKSLSLSPDYKDDDDK EPKSSDKTHTCPPCPAPELLGGPSVFLFPPKPKDTLMISRTPEVTCVVVDVSHEDPEVKFNWYVDGVEVHNAKTKPREEQYNSTYRVVSVLTVLHQDWLNGKEYKCKVSNKALPAPIEKTISKAKGQPREPQVCTLPPSRDELTKNQVSLWCLVKGFYPSDIAVEWESNGQPENNYKTTPPVLDSDGSFFLYSKLTVDKSRWQQGNVFSCSVMHEALHNRYTQKSLSLSP light: DIVMTQSPLSLPVTPGEPASISCRSSQSLVHSNRNTYLHWYQQKPGQAPRLLIYKVSNRFSGVPDRFSGSGSGTDFTLKISRVEAEDVGVYYCGQGTQVPYTFGQGTKLEIKRTVAAPSVFIFPPSDEQLKSGTASVVCLLNNFYPREAKVQWKVDNALQSGNSQESVTEQDSKDSTYSLSSTLTLSKADYEKHKVYACEVTHQGLSSPVTKSFNRGEC |
